41 sequences from the nanobody polyreactivity screen of Harvey et al. (2022) can be followed below.

The data set can be described thus: yeast display, Sf9 membrane polyspecificity reagent, FACS + sequencing; frameworks hold sequencing errors. The procedure, abridged:
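A nanobody's polyreactivity label depends on the gate it was sorted from. Yeast display cells were stained with 10% biotinylated, detergent-solubilized Sf9 membrane reagent for 1 hour at 4 °C, enriched on streptavidin microbeads and sorted by FACS. The low and high (top ~1%) gates were set on anti-HA fluorescence for expression and streptavidin fluorescence for reagent binding.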
Consider “QVQLVESGGGLVQAGGSLRLSCAASGRSILLNAMGWYRHAPGKERELVAAISRGGSTYYADSVKGRFTISRDNAKYSVYLQMNSLKPEDTAVYYCAARFWISHTHWDAGDYWGQGTQVTVSS”, for which the “polyreactivity (PSR sort gate)” value is “low polyreactivity”.

Take “QVQLVESGGGLVQAGGSLRLSCAASGFIFDEYAMGWYRQAPGKERELVAAISWSGSRTYYADSVKGRFTISRDNAKNTVYLQMNRLKPEDTSVYYCAKVTGVVAGRRNYWGQGTQVTVSS”: the “polyreactivity (PSR sort gate)” value was “low polyreactivity”.

Turning to “QVQLVESGGGLVQARGSLRLSCAASGFIIRWNTKGWYRQAPGKVRELVAAISSRGGSTYYADSVKGRFKISRDNAKNTVYLQMNSRKPEDTAVYYCNAVRGDEYWGLGTQVTVSS”, the “polyreactivity (PSR sort gate)” value was “high polyreactivity”.

With “QVQLVESGGGLVQAGGSLRLSCAASGFISYFYAMGWYRQAPGKERELVAAISWNGARTYYADSVKGRFTISRDNAKNTVYLQMNSLKPEDTAVYYCNAGTFTRRRGLDYWGQGTQVTVSS”, the “polyreactivity (PSR sort gate)” value was “low polyreactivity”.

Turning to “QVQLVESGGGLVQAGGSLRVSCAASGSTFYIYAMGWSRQAPGKERELVARISGSGGSTYYADSVKGRFTISRDYAKNTVYLLMNSLKPEDTAVYYCAADDIYKYYQYYAFPYSRYDYWGQGTQLTVSS”, the “polyreactivity (PSR sort gate)” value is “low polyreactivity”.

Consider “QVQLVESGGGLVQAGGSLRLSCAASGSTFYINAMGWYRQAPGKERELVAAITSGGSTNYADSVKGRFTISRDNAKNTVYLQMNSLKPEDTAVYYCAKVSYYPWRYDYWGQGTQVTVSS”, for which the “polyreactivity (PSR sort gate)” value is given as “low polyreactivity”.

Regarding “QVQLVESGGGLVQAGGSLRLSCAASGFIFWFYAMGWYRQAPGKERELVASISASGGSTNYADSVKGRFTISRDYAKKTVYLQMNSLKPEDTAVYYCAARKRYLRGYWGQGTQVTVSS”, the “polyreactivity (PSR sort gate)” value is “high polyreactivity”.

Take “QVQLVESGGGLVQAGGSLRLSCAPSGSTFRFYAMGWYRQAPGKERELVAVISSAGSTNYADSVKGRFTISRDNAQNTVYLQMNSLKPEDTAVYYCAAYRRYSIYNYWGQGTQVTVSS”: the “polyreactivity (PSR sort gate)” value was “high polyreactivity”.

On to “QVQLVESGGGLVQAGGSLRLSCAASGRIFASNAMGWYRQAPGKERELVAGISRNGGSTFYADSVKGRFTISRDNAKNTVYLQMNSLKPEDTAVYYCARYYTHSGGYRDRIYYYWGQGTQVTVSS”, for which the “polyreactivity (PSR sort gate)” value is “low polyreactivity”.

As to “QVQLVESGGGLVQAGGSLRLICAASGSTFSSYFMGWYRQAPRKERKLVAAITRSGVYTYYADSVKGRFTISRDNAKNTVYLQMNSLKPEDTAVYYCARRAKGAYWNEYNYWGQGTQVTVSS”, the “polyreactivity (PSR sort gate)” value is listed as “high polyreactivity”.

For “QVQLVESGGGLVQAGGSLRLSCAASGRIFVGYAMGWYRQAPGKERELVAAISSDGGSTYYADSVKGRFTISRDNAKNTVYLQMNSLKPEDSAVYYCNAYYGRFPYYADDYWGQGTQVTVSS”, the “polyreactivity (PSR sort gate)” value was “low polyreactivity”.

With “HVQLVESGGGLVQAGGSLRLSCAASGIIFYQYAMGWYRQAPGKERELVATISSNGGATYADSVKGRFTISRDNAKNTVYLQMNSLKPEDTAVYYCNAGGRYHAPSGDYWGQGTQVTVSS”, the “polyreactivity (PSR sort gate)” value was “low polyreactivity”.

With “QVQLVESGGGLVQAGGSLRLSCAASGRTFTFNTMGWYRQAPGKERELVAAITISDGRTYYADSVKGRFTISRDNAKNTVYLQMNSLKREVTAVYYCAAVQKYGYYWRHNDYWGQGTQVTVSS”, the “polyreactivity (PSR sort gate)” value was “low polyreactivity”.

Regarding “QEQLVESGGGLVQAGGSLRLSCAPSGSIMYVYAMGWYRPAPGKERELVAVITSGGSTTYADSVKGRFTMSRDNAKNTVYLQMNSLKPEDTAVYYCAAVPYSVYGGDYWGQGTQVTVSS”, the “polyreactivity (PSR sort gate)” value is recorded as “low polyreactivity”.

“QVQLVESGGGLVQAGGSLRLSCAASGIIFYHNAMGWYRQAPGKERELVASITEIGGSTYYADSVKGRFTISRDNAKNTVYLQMNSLKPEDTAVYYCAAGTLTSFSRYDYWGQGTQVTVSS”: the “polyreactivity (PSR sort gate)” value is recorded as “low polyreactivity”.

For “QVQLVESGGGLVQAGGSLRLSCAASGLTFVKNAMGWNRQAPGKERELVAAITVSGSRTYYADSVKGRFTISRDNAKNTVYLQMNSLKPEDTGVYYCNAYPYYLVRNMDSWGQGTLVTVSS”, the “polyreactivity (PSR sort gate)” value is recorded as “high polyreactivity”.

With “QVQLEESGGGLVQAGGSLRLSCAASGFSFVTYPMGWYRQAPGKEREFVATISRSGGSTYYADSVKGRFTISRDNAKNTVYLQMNSLKPEDTAVYYCAARGRYPYRYGYWGQGTQVTVSS”, the “polyreactivity (PSR sort gate)” value is recorded as “high polyreactivity”.

Regarding “QVQLVESGAGLVQAGGSLGLSCAPSGRIFGRYVRGWYRQAPGKERELVATITSRGGTTYYADSVKGRFTISRDNAKNTVFLQMISLKPEDTAVYYCAVRGLIRFSKYGYWGQGTQVTVSS”, the “polyreactivity (PSR sort gate)” value is “high polyreactivity”.

As to “QVQLVESGGGLVQAGGSLRLSCAASGSIFAPYAMGWYRQAPGKERELVATIRTTGDSTYYADSVKGRFTISRDNAKNTVYLQMNSLKPEDTAVYYCAAQQGVISRGNYWGQGTQVTVSS”, the “polyreactivity (PSR sort gate)” value is on record as “low polyreactivity”.

As for “QVQLVESGGGLVQAGGSLRLICAASGSIFSSYAMGWYRQAPGKERELVAAITSGGSTYYADSVKGRFTISRDNAKNTVYLQMNSLKPEDTAVYYCAARQVRTSKLHMGYWGQGTQVTVSS”, the “polyreactivity (PSR sort gate)” value is “low polyreactivity”.

Consider “QVQLVESGGGLVQAGGSLRISCAASGRIFFTNAMGWYRQAPGKDRELVAAISKSGARTYYADSVKGRFTISRDNAKNTVYLQMNSLKPEDTAVYYCSEFYYWGQGTQVTVSS”, for which the “polyreactivity (PSR sort gate)” value is “high polyreactivity”.

As for “QVQLVESGGGLVQAGGSLRLSCAASGFIFRFNAMGWYRQAPGKERELVAAITYRGITYYADSVKGRFTISRDNAKNTVYLQMNSLKPEDTAVYYCAKRTSARGLYGVYFGRYEYWGQGTQVTVSS”, the “polyreactivity (PSR sort gate)” value is reported as “high polyreactivity”.

For “QVQLVESGGGLVQAGGSLRLSCAASGFTLKQYAMGWYRQAPGKERELVAAIRWSGGSTNYADSVKGRFTISRDNAKNTVYLQMNSLKPEDTAVYYCAADFRTPYFGIRYGYWGQGTQVTVSS”, the “polyreactivity (PSR sort gate)” value was “high polyreactivity”.

As to “QVQLVESGGGLVQAGGSLRLSCAASGNTFYRNAMGWYRQAPGKERELVAGISNGGSTNYEDSVKGRFTISRDNAKNSVYLQMNSLKPEDTAVYYFAKDEPKVSRAFDYWGQGTQVNVSS”, the “polyreactivity (PSR sort gate)” value was “low polyreactivity”.

As for “QVQLVESGGGLVQAGGSLRLSCAASGTFVSYVMGWYSQPPGKERELVAAINVRGASTYYADSVKGRFTISRDNAKITVYLQMNTLKPEDTAVYYCATEYVSGPEYDYWGQGTQVTVSS”, the “polyreactivity (PSR sort gate)” value is “low polyreactivity”.

For the sequence “QLQLVESGGGLVQAGGSLRLSCAASGRIFGKNDMRSYRQAPGKERELVAAITTSGGSTDYADSVKGRFTISRDKAKNTVYLQMNSLKPEDTAVYYCNAAFQNKAYIRKYKYDYWGQGTQVTVSS”, the “polyreactivity (PSR sort gate)” value is “low polyreactivity”.

As to “QVQLVESGGGLVQAGGSLRLSCAASGSTLPYYAMGWYRQAPGKERELVADITARGGTYYADSVKGRFTISRDNAKNTVYLQMNSLKPEDTAVYYCAAEDYWSPGYDYWGQGTQVTVSS”, the “polyreactivity (PSR sort gate)” value is listed as “high polyreactivity”.

In the case of “QVQLVESGGGLVQAGGSLRLSCAASGRTFWRYAMGWYRQAPGKERELVAAISSGGRTNYADSVKGRFTISRDNAKNTVYLQMNSLKPEDTAVYYCAVKTVRSSSRNYWGQGTQVTVSS”, the “polyreactivity (PSR sort gate)” value is “high polyreactivity”.

Take “QVQLVESGGGLVQAGGSLRLSCAASGSIVGYYFMGWYRQAPGKERELVAAITRSGSTYYADSVKGRFTISRDNEKNTVYLQMNSLKPEDTAVYYCAADGSYYWYTHTTYDYWGQGTQVTVSS”: the “polyreactivity (PSR sort gate)” value is “low polyreactivity”.

For the sequence “QVQLVESGGGLVQAGGSLRISCAASGGTFTKNAMGWYRQAPGKERELLAAISWRGTSTYYADSVKGRFTISRDNAKNTVYLQMNSLKPEDTAVYYCNTDRYFRRYYWYDYWGQGTQVTVSS”, the “polyreactivity (PSR sort gate)” value is “high polyreactivity”.

For the sequence “QVHLLESGGALVQAGGRLRLSCAASGRIFKTYAMGWYRQAPGKELEFVAAITASGGRTYYADSVKGRFTISRDNAKNTVYLQMNSLIPEDTAGYYCNARLVYYSYEEMDYWGQGTQVTVSS”, the “polyreactivity (PSR sort gate)” value is reported as “low polyreactivity”.

For the sequence “QLQLVESGGGLVQAGGSLRLSCADSASIFTCYAMGWDRQAPGKESELVARINVSAGITYYADSVMGRFTISRDNAKNPVYLQMNSLNPEDTAVYYCAATGLRRPKHNYWGQGPQVTVSS”, the “polyreactivity (PSR sort gate)” value is recorded as “low polyreactivity”.

“QVQLVESGGGLVQAGGSLRLSCAASGYIFPYYTMGWYRQAPGKERELVAAITIGGSTYYADSVKGRFTISRDNAKNTVYFQMNSLKPVDTAVYYCAARSRYYDTRFDYWGQGTQVTVSS”: the “polyreactivity (PSR sort gate)” value is listed as “low polyreactivity”.

On to “QVQLVESGGGLVQAGGSLRLSCAASGRTSVPYAMGWYRQAPGKERELVAAITSGGSTYYADSVKGRFTISRDNAKNTVYLQMNSQKPEDTAVYYCAASQPHSAPYTASYGSWGQGTQVTVSS”, for which the “polyreactivity (PSR sort gate)” value was “low polyreactivity”.

Consider “QVQLVDSVGGLVQAGGTHRLSCAASGSIFEIYAMGWYRQAPGKERELVASITSSGGSTYYADSVKGRFTISRDYAKNTVYLQMNSLKPEDTAVYYCATDKRYGRTVRMDYWGQGTQVTVSS”, for which the “polyreactivity (PSR sort gate)” value was “low polyreactivity”.

In the case of “QVQLVESGRGLVQAGGSLRLSCAASGSTFQSNAMGWYRQATGKERELVAAIDQSGGSTYYADSVKGRFTISRHNAKNTVYLQMNSLKPEDSAVYYCAAEYYYPQQPRKWYGYWGQGTQVTVSS”, the “polyreactivity (PSR sort gate)” value is “high polyreactivity”.

Turning to “QVQLVESGGVLVQAGGSLRLSCAASGSTFYYYAMGWYRKAPGKERELVAAISSSGGTTYYADSVKGRFTISRDNAKNTVYLQMNSLKPEDTAVYYCAKYPWYWDEGNSWGQGTQVTVSS”, the “polyreactivity (PSR sort gate)” value is listed as “low polyreactivity”.

For “QVQLVESGGGLVQAGGSLRLSCAASGFTFAYYAMGWYRQAPGKERELVADISSGGSTDYADSVKGRFTISRDNAKNTVYLQMNSLKPEDTAVYYCNAVVVRLWYDYDYWGQGTQVTVSS”, the “polyreactivity (PSR sort gate)” value is recorded as “low polyreactivity”.

In the case of “QVQIVESGGGLVQAVGSLRLSCAAYGSTFCANAMGCYRQAPGKERELVAAIRGTGGSTYADSVKGRFTISRDNAKNTVYLQMNSLKPEDTAVYYCNAKGRGWTAQYDYCGQGTQVTVSS”, the “polyreactivity (PSR sort gate)” value is recorded as “low polyreactivity”.

In the case of “QVQLVESGGGLVQAGGSLRLSCAASGRIFVTYAMGWYRQAPGKERELVAAITSRGGRTYYADSVKGRFTISRDNAKKTVYLQMNSLKPEDTAVYYCAAYPGPGARYYYWGQGTQVTVSS”, the “polyreactivity (PSR sort gate)” value is on record as “high polyreactivity”.

For the sequence “QVQLVESGGGLVQAGGSLRLSCAASGRTFTHNVMGWYRQAPGKERELVAGISSTGGSTYYADSVKGRFTISRDNAKNTVYLQMNSLKPEDTAVYYCAVIGYHYSAISPPSQTRQGYDYWGQGTQVTVSS”, the “polyreactivity (PSR sort gate)” value is recorded as “low polyreactivity”.
